US20030143735A1 (University of Pennsylvania, published 2003)

Target: T1, HIV-1 p55gag precursor polyprotein (HIV-1, UniProt P04591 1-500)
T1 construct: In vitro translated control protein
Test: coimmunoprecipitation of 35S-labeled in vitro translated proteins, SDS-PAGE

B1: human Vpr Interacting Protein (hVIP), 35S-labeled, in vitro translated (other)
chain: MHARAAASVMDICRIRLDHAVSMSTFFFFLSSGMEVDAAVVPSVMACGVTGSVSVALHPLVILNISDHWIRMRSHQGRPVQVIGALIGKQEGRNIEVMNSFELLSHTVEEKIIIDKEYYYTKEEQFKQVFKELEFLGWYTTGGPPDPSDIHVHKQCCEIIESPLFLKLNPMTKHTDLPVSVFESVIDIINGEATMLFAELTYTLATEEAERIGVDHVARMTATGSGENSTVAEHLIAQHSAIKMLHSRVKLILEYVKASEAGEVPFNHEILREAYALCHCLPVLSTDKFKTDFYDQCNDVGLMAYLGTITKTCNTMNQFVNKFNVLYDRQGIGRRMRGLFF
modifications: 35S radiolabel
notes: In vitro translated hVIP of the coimmunoprecipitation assay; Anti-Express antibody was among the antibodies used, so it may have
B1: no binding.
